The source of these data is patent US20110039773A1.

Assay in all cases: cell-based or functional assay
Test [1] addresses BMP-6 (human) (UniProt P22004).
Test [2] addresses BMP-7 E60K (human) (UniProt P18075).
Test [3] addresses BMP-7 R48Q/E60K/Y65N (human) (UniProt P18075).
The target of test [4] is BMP-7 (human) (UniProt P18075).
Test [5] deals with BMP-7 Y78H (human) (UniProt P18075).
Test [6] deals with Rev K60E (revertant of 80-1) (human) (UniProt P18075).

Sequence of UniProt P22004 (P22004 375-513): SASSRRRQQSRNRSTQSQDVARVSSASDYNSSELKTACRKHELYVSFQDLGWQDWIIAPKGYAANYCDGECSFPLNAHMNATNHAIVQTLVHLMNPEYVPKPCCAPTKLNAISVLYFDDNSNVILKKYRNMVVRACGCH

B1: Noggin (protein, UniProt Q13253 28-232, looked up)
chain: QHYLHIRPAPSDNLPLVDLIEHPDPIFDPKEKDLNETLLRSLLGGHYDPGFMATSPPEDRPGGGGGAAGGAEDLAELDQLLRQRPSGAMPSEIKGLEFSEGLAQGKKQRLSKKLRRKLQMWLWSQTFCPVLYAWNDLGSRFWPRYVKVGSCFSKRSCSVPEGMVCKPSKSVHLTVLRWRCQRRGGQRCGWIPIQYPIISECKCSC
Take B1: in test [1], the BMP-induced ID-1 gene expression by QPCR in hMSCs, BMP 50 ng/ml, Noggin 1.5 ug/ml, level against background (times background) is 2; the maximum percent inhibition by Noggin of BMP-induced luciferase activity, A549-BRE cells, BMP 150 ng/ml was determined as 25%; the relative activity at 1000 ng/ml of noggin, reporter gene assay, conditioned media turned out to be 73%. In addition, the relative activity at 1000 ng/ml of noggin, reporter gene assay, conditioned media in test [2] came to 53%. Besides, in test [3], the relative activity at 1000 ng/ml of noggin, reporter gene assay, conditioned media came to 63%. Also, the relative activity at 1000 ng/ml of noggin, reporter gene assay, conditioned media in test [4] worked out at 15%. For the same molecule, in test [5], the relative activity at 1000 ng/ml of noggin, reporter gene assay, conditioned media was 31%. For the same molecule, in test [6], the relative activity in the presence of noggin at 100 ng/ml (N1), reporter gene assay was determined as 86%; the relative activity in the presence of noggin at 500 ng/ml (N2), reporter gene assay worked out at 51%; the relative activity in the presence of noggin at 1000 ng/ml (N3), reporter gene assay was 32%.
